{
  "source": "paper PMC4909244",
  "about": "“Crystal structure of glutamate-1-semialdehyde-2,1-aminomutase from Arabidopsis thaliana” (Acta Crystallographica. Section F, Structural Biology …, 2016)",
  "target": "the molecule itself",
  "assay": "SEC; size-exclusion chromatography, in solution; data not shown",
  "data": [
    {"protein": "Glutamate-1-semialdehyde-2,1-aminomutase from Arabidopsis thaliana (AtGSA1) (enzyme, The sense primer puts a TEV site (ENLYFQG) directly before VDEKKKS, so a Gly may remain at the N-terminus after cleavage (surmised from the primer); The protein retains the cofactors PMP/PLP; The first six N-terminal residues are not modelled in the structure; also called GSAM; glutamate-1-semialdehyde aminotransferase; source: E. coli BL21(DE3), purified (nickel-nitrilotriacetic acid column, TEV …)) not shown", "values": [
      {"measurement": "stoichiometry N", "value": 2}
    ]}
  ]
}
